Blank lines part the entries; values can stand above or below the binder they belong to.
Assays:
[1] = target: T1, biotinylated monovalent EpCAM-Fc (human EpCAM ECD-Fc knob avi-his paired with Fc hole) (human, UniProt P01857 104-328 = IgG part, biotin on the avi tag (BirA co-expression)); test: SPR ProteOn XPR36 off-rate, biotinylated monovalent EpCAM-Fc on NLC chip
T1 construct: also called monovalent EpCAM-Fc construct; huEPCAM-Fc-knob (avi-His) + Fc hole (wt)

[2] = target: T2, human CD28 on CHO cells (CHO-k1 ATCC #CCL-61 modified to stably overexpress human CD28) (human, UniProt P10747 19-220); test: flow cytometry, CHO-k1 cells stably overexpressing human CD28; monovalent one-armed IgG from supernatant, PE-labelled goat anti-human detection; MFI (PE) against c [nM]
T2 construct: also called CHO-k1-huCD28 cells; hu CD28

[3] = target: T3, human EpCAM on tumor cells (KATO-III, HT-29, MKN45, NCI-H1755) (human, UniProt P16422 24-314); test: flow cytometry, KATO-III cells (EpCAM+); PE-labelled goat anti-human detection; fluorescence intensity [PE] against concentration (nM); CD19-targeted negative control
T3 construct: endogenous EpCAM of human tumor cell lines; also called epithelial cell adhesion molecule
T3 sequence: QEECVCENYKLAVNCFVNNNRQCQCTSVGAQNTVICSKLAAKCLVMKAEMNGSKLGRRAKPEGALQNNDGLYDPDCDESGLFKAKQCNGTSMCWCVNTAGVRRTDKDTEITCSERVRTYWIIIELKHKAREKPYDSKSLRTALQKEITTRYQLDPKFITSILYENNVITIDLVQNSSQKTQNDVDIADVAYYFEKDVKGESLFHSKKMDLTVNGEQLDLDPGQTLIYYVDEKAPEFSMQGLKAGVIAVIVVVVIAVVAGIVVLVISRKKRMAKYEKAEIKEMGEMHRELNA

[4] = target: T3, human EpCAM on tumor cells (KATO-III, …); test: cell-based or functional assay
[5] = target: T3, human EpCAM on tumor cells (KATO-III, …); test: flow cytometry on EpCAM-expressing HT-29 cells
[6] = target: T2, human CD28 on CHO cells (CHO-k1 ATCC …); test: flow cytometry, CHO-k1-huCD28 cells; PE-labelled goat anti-human detection; fluorescence intensity [PE] against concentration (nM)
[7] = target: T3, human EpCAM on tumor cells (KATO-III, …); test: flow cytometry, KATO-III cells (EpCAM+); PE-labelled goat anti-human detection; fluorescence intensity [PE] against concentration (nM)

koff [1]: 0.00024 s⁻¹
B1: parental murine anti-human EpCAM antibody MOC31 (antibody, V domains shown)
VH: QVQLQQSGPELKKPGETVKISCKASGYTFTNYGMNWVKQAPGRGLKWMGWINTYTGESTYADDFKGRFAFSLETSASAAYLQINNLKNEDTATYFCARFAIKGDYWGQGTTLTVSS
VL: DIVMTQSAFSNPVTLGTSASISCRSTKSLLHSNGITYLYWYLQKPGQSPQLLIYQMSNLASGVPDRFSSSGSGTDFTLRISRVEAEDVGVYYCAQNLEIPRTFGGGTKLEIK

binding result [2]: binds
B2: CD28(SA)_variant_9 (antibody, human IgG1, kappa, L234A L235A)
heavy: not shown
light: not shown
chain: DKTHTCPPCPAPEAAGGPSVFLFPPKPKDTLMISRTPEVTCVVVDVSHEDPEVKFNWYVDGVEVHNAKTKPREEQYNSTYRVVSVLTVLHQDWLNGKEYKCKVSNKALGAPIEKTISKAKGQPREPQVCTLPPSRDELTKNQVSLSCAVKGFYPSDIAVEWESNGQPENNYKTTPPVLDSDGSFFLVSKLTVDKSRWQQGNVFSCSVMHEALHNRFTQKSLSLSP
notes: one-armed (monovalent) hu IgG1 PG-LALA, empty Fc hole; tested from supernatant; also called P1AE3065

binding result [3]: no binding (tested: 500 nM)
B3: CD19 (8B8-2B11)-CD28 (SA_variant 8) 1+1 (bispecific antibody, human IgG1, kappa, L234A L235A)
heavy 1: not shown
light 1: not shown
heavy 2: DIVMTQTPLSLSVTPGQPASISCKSSQSLETSTGTTYLNWYLQKPGQSPQLLIYRVSKRFSGVPDRFSGSGSGTDFTLKISRVEAEDVGVYYCLQLLEDPYTFGQGTKLEIKSSASTKGPSVFPLAPSSKSTSGGTAALGCLVKDYFPEPVTVSWNSGALTSGVHTFPAVLQSSGLYSLSSVVTVPSSSLGTQTYICNVNHKPSNTKVDKKVEPKSCDKTHTCPPCPAPEAAGGPSVFLFPPKPKDTLMISRTPEVTCVVVDVSHEDPEVKFNWYVDGVEVHNAKTKPREEQYNSTYRVVSVLTVLHQDWLNGKEYKCKVSNKALGAPIEKTISKAKGQPREPQVCTLPPSRDELTKNQVSLSCAVKGFYPSDIAVEWESNGQPENNYKTTPPVLDSDGSFFLVSKLTVDKSRWQQGNVFSCSVMHEALHNHYTQKSLSLSP
light 2: QVQLVQSGAEVKKPGASVKVSCKASGYTFTDYIMHWVRQAPGQGLEWMGYINPYNDGSKYTEKFQGRVTMTSDTSISTAYMELSRLRSDDTAVYYCARGTYYYGPQLFDYWGQGTTVTVSSASVAAPSVFIFPPSDEQLKSGTASVVCLLNNFYPREAKVQWKVDNALQSGNSQESVTEQDSKDSTYSLSSTLTLSKADYEKHKVYACEVTHQGLSSPVTKSFNRGEC
notes: control; huIgG1 PG-LALA CrossFab; charged modifications in CD28 Fab (knob), VH/VL exchange in CD19 Fab (hole); also called Molecule H; P1AF0175

EC50, IL2 reporter cell assay with HT-29 cells and 10 nM anti-CD3 OKT3 [4]: 0.203 nM
EC50 [5]: 3.44 nM
binding result [6]: binds
EC50 (read off the curve) [7]: ~10 nM
B4: EpCAM (4D5MOC-B)-CD28 (SA_variant 8) 1+1 (bispecific antibody, human IgG1, kappa, L234A L235A)
heavy 1: not shown
light 1: QVQLVQSGAEVKKPGASVKVSCKASGYTFTSYYIHWVRQAPGQGLEWIGSIYPGNVQTNYNEKFKDRATLTVDTSISTAYMELSRLRSDDTAVYFCTRSHYGLDFNFDVWGQGTTVTVSSASVAAPSVFIFPPSDEQLKSGTASVVCLLNNFYPREAKVQWKVDNALQSGNSQESVTEQDSKDSTYSLSSTLTLSKADYEKHKVYACEVTHQGLSSPVTKSFNRGEC
heavy 2: EVQLVQSGPGLVQPGGSVRISCAASGYTFTNYGMNWVKQAPGKGLEWMGWINTYTGESTYADSFKGRFTFSLDTSASAAYLQINSLRAEDTAVYYCARFAIKGDYWGQGTLLTVSSASTKGPSVFPLAPSSKSTSGGTAALGCLVEDYFPEPVTVSWNSGALTSGVHTFPAVLQSSGLYSLSSVVTVPSSSLGTQTYICNVNHKPSNTKVDEKVEPKSCDKTHTCPPCPAPEAAGGPSVFLFPPKPKDTLMISRTPEVTCVVVDVSHEDPEVKFNWYVDGVEVHNAKTKPREEQYNSTYRVVSVLTVLHQDWLNGKEYKCKVSNKALGAPIEKTISKAKGQPREPQVCTLPPSRDELTKNQVSLSCAVKGFYPSDIAVEWESNGQPENNYKTTPPVLDSDGSFFLVSKLTVDKSRWQQGNVFSCSVMHEALHNHYTQKSLSLSP
light 2: DIQMTQSPSSLSASVGDRVTITCRSTKSLLHSNGITYLYWYQQKPGKAPKLLIYQMSNLASGVPSRFSSSGSGTDFTLTISSLQPEDFATYYCAQNLEIPRTFGQGTKVELKRTVAAPSVFIFPPSDRKLKSGTASVVCLLNNFYPREAKVQWKVDNALQSGNSQESVTEQDSKDSTYSLSSTLTLSKADYEKHKVYACEVTHQGLSSPVTKSFNRGEC
notes: huIgG1 PG-LALA CrossFab; VH/VL exchange in CD28 Fab (knob), charged modifications in EpCAM Fab (hole); also called Molecule F; P1AF5980

Reference: patent US20240368309A1 (Hoffmann-La Roche, published 2024)
